The text below walks through data of article PMC4749557.

As usually defined, the Kd is the free concentration of one partner at which half of the binding sites on the other are occupied at equilibrium, for simple one-to-one binding.

Test [1] has as its target 12 clones that bound to human PRDM14 (monobodies; the members other than Mb(S4) and Mb(S14) are not given). The test is described as follows: yeast surface display; KD of monobody clones displayed on yeast for hPRDM14.
For test [2], the target named is Mb(hPRDM14_S14) displayed on the yeast surface. The test is described as above.
Test [3] shares this target. The test is described as follows: yeast surface display; monobodies on the yeast surface with 50 nM of hPRDM14 or a homologue.

B1: human PRDM14 (residues 238–487) (domain or fragment)
chain: LPQTLDKDSLQLPEGLCLMQTVFGEVPHFGVFCSSFIAKGVRFGPFQGKVVNASEVKTYGDNSVMWEIFEDGHLSHFIDGKGGTGNWMSYVNCARFPKEQNLVAVQCQGHIFYESCKEIHQNQELLVWYGDCYEKFLDIPVSLQVTEPGKQPSGPSEESAEGYRCERCGKVFTYKYYRDKHLKYTPCVDKGDRKFPCSLCKRSFEKRDRLRIHILHVHEKHRPHKCSTCGKCFSQSSSLNKHMRVHSGDR
modifications: biotin (biotin-acceptor tag)
On to B1, for which the equilibrium dissociation constant (Kd) in test [1] and in test [2] was less than 100 nM each time. The fold stronger binding than hPRDM6 and hPRDM12 in test [3] is greater than 5 fold.
